Assay results reported in publication PMC8318587, “Structure-guided microbial targeting of antistaphylococcal prodrugs” (eLife, 2021).

Columns and labels:
Assay in all cases: Esterase substrate specificity, fluorogenic SAR library kinetics
Assay type in all cases: biochemical, Staphylococcus aureus
Conditions in all cases: other: SaGloB, fluorogenic ester substrate; pH 7.5; 37.0 °C
[1] = substrate: C=CCOC(C)C(=O)OCOc1ccc2c(c1)Oc1cc(OCOC(=O)C(C)OCC=C)ccc1C21OC(=O)c2ccccc21
Protocol: (§1) Kinetic measurements were performed according to [White et al., 2018] with minor variation. Lyophilized human and mouse sera were resuspended according to manufacturer instructions in highly pure, filtered water at protein concentrations of 85 mg/mL and 70 mg/mL, respectively. One milliliter of resuspended serum was added to a 24 mL mastermix for a final concentration of 31.25 mM Tris pH 7.5, 312.5 mM NaCl, 1.25 mM MgCl2, 12.5% glycerol, and 3.4 mg/mL or 2.8 mg/mL protein for human and mouse serum, respectively. For purified proteins, 5 mL of a 75 µg/mL stock was added to yield a 20 mL mastermix containing 31.25 mM Tris pH 7.5, 312.5 mM NaCl, 1.25 mM MgCl2, 12.5% glycerol, and 18.75 µg/mL protein. Mastermix was stored on ice when not in use. Twenty microliters of mastermix was transferred to a black, 96-well half area microplate (Corning, CLS3993) and prewarmed at 37°C. Fluorogenic substrates were prepared as 10 mM stock solutions in 100% DMSO and were diluted in water to a starting concentration of 500 µM. Enzyme catalyzed substrate hydrolysis was initiated by addition of 5 µL substrate dilution in technical duplicate to the prewarmed serum or protein solution. Final assay concentrations were as follows: 25 mM Tris pH 7.5, 250 mM NaCl, 1 mM MgCl2, 10% glycerol, and protein at a concentration of 2.72 mg/mL (human serum), 2.24 mg/mL (mouse serum), or 15 µg/mL (FrmB, GloB). The resulting change in fluorescence (λex = 485 nm, λem = 520 nm) was followed for 15 min at 37°C, collecting data every 30 s on a FLUOstar Omega microplate reader (BMG Labtech). Fluorescence measurements were converted to molar concentrations using a fluorescein standard curve (2.5 nmol–0.6 pmol). The initial rates of reaction were measured three independent times with two technical replicates per measurement and fit to a line using GraphPad Prism (GraphPad Software, La Jolla, CA). Initial rates of reaction were plotted versus the concentration of substrate and fit to a standard Michaelis–Menten equation (v = Vmax[S]/(Km + [S])), yielding estimates of Vmax and Km. Values for kcat and kcat/Km were calculated based on amount of enzyme added when purified enzymes were used.

[2] = substrate: CCCCC(=O)OCOc1ccc2c(c1)Oc1cc(OCOC(=O)CCCC)ccc1C21OC(=O)c2ccccc21
Protocol: as §1

[3] = substrate: CSC(C)C(=O)OCOc1ccc2c(c1)Oc1cc(OCOC(=O)C(C)SC)ccc1C21OC(=O)c2ccccc21
Protocol: as §1

[4] = substrate: CCCOCC(=O)OCOc1ccc2c(c1)Oc1cc(OCOC(=O)COCCC)ccc1C21OC(=O)c2ccccc21
Protocol: as §1

[5] = substrate: CCSCCC(=O)OCOc1ccc2c(c1)Oc1cc(OCOC(=O)CCSCC)ccc1C21OC(=O)c2ccccc21
Protocol: as §1

[6] = substrate: COC(C)C(=O)OCOc1ccc2c(c1)Oc1cc(OCOC(=O)C(C)OC)ccc1C21OC(=O)c2ccccc21
Protocol: as §1

[7] = substrate: CC(C)CCC(=O)OCOc1ccc2c(c1)Oc1cc(OCOC(=O)CCC(C)C)ccc1C21OC(=O)c2ccccc21
Protocol: as §1

[8] = substrate: CCCC(=O)OCOc1ccc2c(c1)Oc1cc(OCOC(=O)CCC)ccc1C21OC(=O)c2ccccc21
Protocol: as §1

[9] = substrate: CSCC(=O)OCOc1ccc2c(c1)Oc1cc(OCOC(=O)CSC)ccc1C21OC(=O)c2ccccc21
Protocol: as §1

[10] = substrate: CC(C)SCC(=O)OCOc1ccc2c(c1)Oc1cc(OCOC(=O)CSC(C)C)ccc1C21OC(=O)c2ccccc21
Protocol: as §1

[11] = substrate: COCC(=O)OCOc1ccc2c(c1)Oc1cc(OCOC(=O)COC)ccc1C21OC(=O)c2ccccc21
Protocol: as §1

[12] = substrate: CCOC(C)C(=O)OCOc1ccc2c(c1)Oc1cc(OCOC(=O)C(C)OCC)ccc1C21OC(=O)c2ccccc21
Protocol: as §1

[13] = substrate: CCSC(C)C(=O)OCOc1ccc2c(c1)Oc1cc(OCOC(=O)C(C)SCC)ccc1C21OC(=O)c2ccccc21
Protocol: as §1

B1: SaGloB (Staphylococcus aureus subsp. aureus str. Newman) (protein)
chain: MRISSLTLGLVDTNTYFIENDKAVILIDPSGESEKIIKKLNQINKPLKAILLTHAHFDHIGAVDDIVDRFDVPVYMHEAEFDFLKDPVKNGADKFKQYGLPIITSKVTPEKLNEGSTEIEGFKFNVLHTPGHSPGSLTYVFDEFAVVGDTLFNNGIGRTDLYKGDYETLVDSIQDKIFELEGDLPLFPGHGPYTTVDDEQLNPFLHG
- Km [1]: 36.91 µM
- Vmax [1]: 1.04 pmol*min-1*μg protein-1
- kcat [1]: 0.156 10-3 s-1
- kcat/Km [1]: 4.21 M⁻¹ s⁻¹
- Km [2]: 18.33 µM
- Vmax [2]: 0.292 pmol*min-1*μg protein-1
- kcat [2]: 0.0436 10-3 s-1
- kcat/Km [2]: 2.38 M⁻¹ s⁻¹
- Km [3]: 49.5 µM
- Vmax [3]: 0.722 pmol*min-1*μg protein-1
- kcat [3]: 0.108 10-3 s-1
- kcat/Km [3]: 2.18 M⁻¹ s⁻¹
- Km [4]: 8.41 µM
- Vmax [4]: 4.21 pmol*min-1*μg protein-1
- kcat [4]: 0.630 10-3 s-1
- kcat/Km [4]: 74.8 M⁻¹ s⁻¹
- Km [5]: 31.7 µM
- Vmax [5]: 0.18 pmol*min-1*μg protein-1
- kcat [5]: 0.0266 10-3 s-1
- kcat/Km [5]: 0.840 M⁻¹ s⁻¹
- Km [6]: 20.5 µM
- Vmax [6]: 23.1 pmol*min-1*μg protein-1
- kcat [6]: 3.45 10-3 s-1
- kcat/Km [6]: 168 M⁻¹ s⁻¹
- Km [7]: 48.00 µM
- Vmax [7]: 0.444 pmol*min-1*μg protein-1
- kcat [7]: 0.0663 10-3 s-1
- kcat/Km [7]: 1.38 M⁻¹ s⁻¹
- Km [8]: 6.23 µM
- Vmax [8]: 0.497 pmol*min-1*μg protein-1
- kcat [8]: 0.0744 10-3 s-1
- kcat/Km [8]: 11.9 M⁻¹ s⁻¹
- Km [9]: 32.49 µM
- Vmax [9]: 14.9 pmol*min-1*μg protein-1
- kcat [9]: 2.22 10-3 s-1
- kcat/Km [9]: 68.4 M⁻¹ s⁻¹
- Km [10]: 65.8 µM
- Vmax [10]: 4.19 pmol*min-1*μg protein-1
- kcat [10]: 0.627 10-3 s-1
- kcat/Km [10]: 9.53 M⁻¹ s⁻¹
- Km [11]: 73.5 µM
- Vmax [11]: 217 pmol*min-1*μg protein-1
- kcat [11]: 32.5 10-3 s-1
- kcat/Km [11]: 442 M⁻¹ s⁻¹
- Km [12]: 15.5 µM
- Vmax [12]: 1.01 pmol*min-1*μg protein-1
- kcat [12]: 0.151 10-3 s-1
- kcat/Km [12]: 9.71 M⁻¹ s⁻¹
- Km [13]: 79.8 µM
- Vmax [13]: 1.02 pmol*min-1*μg protein-1
- kcat [13]: 0.153 10-3 s-1
- kcat/Km [13]: 1.92 M⁻¹ s⁻¹
